Data published in US11026999B2, “Insulin glargine/lixisenatide fixed ratio formulation” (SANOFI-AVENTIS DEUTSCHLAND GMBH, priority 2013, dated 2021).

Test system: type 2 diabetic patients
Experiment: Treatment-emergent adverse events, SAEs, deaths, TEAEs leading to withdrawal (Example 1)
Settings: Safety population
Description: Safety: The safety analysis was conducted on the safety population, defined as all randomized patients who received at least one dose of IMP (regardless of the amount of treatment administered). The evaluation of AEs, laboratory, vital sign, and ECG data was descriptive.

Gly(A21)-Arg(B31)-Arg(B32)-human insulin [Insulin Glargine]
TEAE leading to permanent treatment discontinuation: Confusional state (PT): 0 n (%)
TEAE leading to permanent treatment discontinuation: Dizziness (PT): 0 n (%)
TEAE leading to permanent treatment discontinuation: Headache (PT): 0 n (%)
TEAE leading to permanent treatment discontinuation: Nausea (PT): 0 n (%)
TEAE leading to permanent treatment discontinuation: Ovarian cancer (PT): 0 n (%)
TEAE leading to permanent treatment discontinuation: Vomiting (PT): 0 n (%)
TEAE: Abdominal distension (PT): 2 (1.2%) n (%)
TEAE: Arthralgia (PT): 3 (1.9%) n (%)
TEAE: Asthenia (PT): 0 n (%)
TEAE: Atrial fibrillation (PT): 1 (0.6%) n (%)
TEAE: Back pain (PT): 2 (1.2%) n (%)
TEAE: Bronchitis (PT): 1 (0.6%) n (%)
TEAE: Conjunctivitis (PT): 2 (1.2%) n (%)
TEAE: Constipation (PT): 0 n (%)
TEAE: Contusion (PT): 2 (1.2%) n (%)
TEAE: Cough (PT): 0 n (%)
TEAE: Cystitis (PT): 2 (1.2%) n (%)
TEAE: Decreased appetite (PT): 0 n (%)
TEAE: Depression (PT): 2 (1.2%) n (%)
TEAE: Diabetic neuropathy (PT): 2 (1.2%) n (%)
TEAE: Diarrhoea (PT): 6 (3.7%) n (%)
TEAE: Dizziness (PT): 1 (0.6%) n (%)
TEAE: Dyspepsia (PT): 1 (0.6%) n (%)
TEAE: Fatigue (PT): 0 n (%)
TEAE: Gastroenteritis (PT): 1 (0.6%) n (%)
TEAE: Headache (PT): 12 (7.4%) n (%)
TEAE: Hypertension (PT): 2 (1.2%) n (%)
TEAE: Hypertriglyceridaemia (PT): 0 n (%)
TEAE: Influenza (PT): 6 (3.7%) n (%)
TEAE: Injection site pruritus (PT): 0 n (%)
TEAE: Insomnia (PT): 0 n (%)
TEAE: Intervertebral disc disorder (PT): 2 (1.2%) n (%)
TEAE: Laceration (PT): 3 (1.9%) n (%)
TEAE: Lipase increased (PT): 1 (0.6%) n (%)
TEAE: Musculoskeletal pain (PT): 1 (0.6%) n (%)
TEAE: Nasopharyngitis (PT): 9 (5.6%) n (%)
TEAE: Nausea (PT): 0 n (%)
TEAE: Nepbrolithiasis (PT): 2 (1.2%) n (%)
TEAE: Oedema (PT): 2 (1.2%) n (%)
TEAE: Osteoarthritis (PT): 2 (1.2%) n (%)
TEAE: Pain in extremity (PT): 0 n (%)
TEAE: Presyncope (PT): 2 (1.2%) n (%)
TEAE: Rhinitis (PT): 2 (1.2%) n (%)
TEAE: Sciatica (PT): 2 (1.2%) n (%)
TEAE: Sinusitis (PT): 3 (1.9%) n (%)
TEAE: Tinnitus (PT): 2 (1.2%) n (%)
TEAE: Tooth abscess (PT): 2 (1.2%) n (%)
TEAE: Vomiting (PT): 1 (0.6%) n (%)
Treatment emergent SAE: Angina pectoris (PT): 0 n (%)
Treatment emergent SAE: Angina unstable (PT): 0 n (%)
Treatment emergent SAE: Atrial fibrillation (PT): 1 (0.6%) n (%)
Treatment emergent SAE: Bradycardia (PT): 0 n (%)
Treatment emergent SAE: Calculus ureteric (PT): 0 n (%)
Treatment emergent SAE: Cellulitis (PT): 0 n (%)
Treatment emergent SAE: Depression (PT): 1 (0.6%) n (%)
Treatment emergent SAE: Diabetic neuropathy (PT): 0 n (%)
Treatment emergent SAE: ECG signs of myocardial ischaemia (PT): 1 (0.6%) n (%)
Treatment emergent SAE: Intervertebral disc protrusion (PT): 0 n (%)
Treatment emergent SAE: Osteoarthritis (PT): 1 (0.6%) n (%)
Treatment emergent SAE: Ovarian cancer (PT): 0 n (%)
Treatment emergent SAE: Pain in extremity (PT): 0 n (%)
Treatment emergent SAE: Presyncope (PT): 1 (0.6%) n (%)
Treatment emergent SAE: Radius fracture (PT): 0 n (%)
Treatment emergent SAE: Sciatica (PT): 0 n (%)
TEAE leading to permanent treatment discontinuation: Hypersensitivity (PT, adjudicated as not allergic event by ARAC): 0 n (%)
TEAE leading to permanent treatment discontinuation: Gastrointestinal disorders (SOC): 0 n (%)
TEAE leading to permanent treatment discontinuation: Immune system disorders (SOC): 0 n (%)
TEAE leading to permanent treatment discontinuation: Neoplasms benign, malignant and unspecified (incl cysts and polyps) (SOC): 0 n (%)
TEAE leading to permanent treatment discontinuation: Nervous system disorders (SOC): 0 n (%)
TEAE leading to permanent treatment discontinuation: Psychiatric disorders (SOC): 0 n (%)
TEAE: Cardiac disorders (SOC): 1 (0.6%) n (%)
TEAE: Ear and labyrinth disorders (SOC): 2 (1.2%) n (%)
TEAE: Eye disorders (SOC): 7 (4.3%) n (%)
TEAE: Gastrointestinal disorders (SOC): 15 (9.3%) n (%)
TEAE: General disorders and administration site conditions (SOC): 5 (3.1%) n (%)
TEAE: Injury, poisoning and procedural complications (SOC): 11 (6.8%) n (%)
TEAE: Investigations (SOC): 5 (3.1%) n (%)
TEAE: Metabolism and nutrition disorders (SOC): 1 (0.6%) n (%)
TEAE: Musculoskeletal and connective tissue disorders (SOC): 13 (8.0%) n (%)
TEAE: Nervous system disorders (SOC): 20 (12.3%) n (%)
TEAE: Psychiatric disorders (SOC): 2 (1.2%) n (%)
TEAE: Renal and urinary disorders (SOC): 2 (1.2%) n (%)
TEAE: Respiratory, thoracic and mediastinal disorders (SOC): 4 (2.5%) n (%)
TEAE: Vascular disorders (SOC): 3 (1.9%) n (%)
Treatment emergent SAE: Cardiac disorders (SOC): 1 (0.6%) n (%)
Treatment emergent SAE: Injury, poisoning and procedural complications (SOC): 0 n (%)
Treatment emergent SAE: Investigations (SOC): 1 (0.6%) n (%)
Treatment emergent SAE: Musculoskeletal and connective tissue disorders (SOC): 1 (0.6%) n (%)
Treatment emergent SAE: Neoplasms benign, malignant and unspecified (incl cysts and polyps) (SOC): 0 n (%)
Treatment emergent SAE: Nervous system disorders (SOC): 1 (0.6%) n (%)
Treatment emergent SAE: Psychiatric disorders (SOC): 1 (0.6%) n (%)
Treatment emergent SAE: Renal and urinary disorders (SOC): 0 n (%)
Patients with any TEAE: 82 (50.6%) n (%)
Patients with any TEAE leading to death: 0 n (%)
Patients with any TEAE leading to permanent treatment discontinuation: 0 n (%)
Patients with any treatment emergent SAE: 6 (3.7%) n (%)
TEAE leading to permanent treatment discontinuation: HLGT: Allergic conditions: 0 n (%)
TEAE leading to permanent treatment discontinuation: HLGT: Deliria (incl confusion): 0 n (%)
TEAE leading to permanent treatment discontinuation: HLGT: Gastrointestinal signs and symptoms: 0 n (%)
TEAE leading to permanent treatment discontinuation: HLGT: Headaches: 0 n (%)
TEAE leading to permanent treatment discontinuation: HLGT: Neurological disorders NEC: 0 n (%)
TEAE leading to permanent treatment discontinuation: HLGT: Reproductive neoplasms female malignant and unspecified: 0 n (%)
TEAE leading to permanent treatment discontinuation: HLT: Allergic conditions NEC: 0 n (%)
TEAE leading to permanent treatment discontinuation: HLT: Confusion and disorientation: 0 n (%)
TEAE leading to permanent treatment discontinuation: HLT: Headaches NEC: 0 n (%)
TEAE leading to permanent treatment discontinuation: HLT: Nausea and vomiting symptoms: 0 n (%)
TEAE leading to permanent treatment discontinuation: HLT: Neurological signs and symptoms NEC: 0 n (%)
TEAE leading to permanent treatment discontinuation: HLT: Ovarian neoplasms malignant (excl germ cell): 0 n (%)
TEAE: HLGT: Administration site reactions: 1 (0.6%) n (%)
TEAE: HLGT: Appetite and general nutritional disorders: 1 (0.6%) n (%)
TEAE: HLGT: Cardiac arrhythmias: 1 (0.6%) n (%)
TEAE: HLGT: Depressed mood disorders and disturbances: 2 (1.2%) n (%)
TEAE: HLGT: Gastrointestinal investigations: 2 (1.2%) n (%)
TEAE: HLGT: Gastrointestinal motility and defaecation conditions: 7 (4.3%) n (%)
TEAE: HLGT: Gastrointestinal signs and symptoms: 7 (4.3%) n (%)
TEAE: HLGT: General system disorders NEC: 4 (2.5%) n (%)
TEAE: HLGT: Headaches: 13 (8.0%) n (%)
TEAE: HLGT: Injuries NEC: 9 (5.6%) n (%)
TEAE: HLGT: Inner ear and VIIIth cranial nerve disorders: 2 (1.2%) n (%)
TEAE: HLGT: Joint disorders: 6 (3.7%) n (%)
TEAE: HLGT: Lipid metabolism disorders: 0 n (%)
TEAE: HLGT: Musculoskeletal and connective tissue deformities (incl intervertebral disc disorders): 2 (1.2%) n (%)
TEAE: HLGT: Musculoskeletal and connective tissue disorders NEC: 3 (1.9%) n (%)
TEAE: HLGT: Neurological disorders NEC: 5 (3.1%) n (%)
TEAE: HLGT: Peripheral neuropathies: 2 (1.2%) n (%)
TEAE: HLGT: Respiratory disorders NEC: 2 (1.2%) n (%)
TEAE: HLGT: Sleep disorders and disturbances: 0 n (%)
TEAE: HLGT: Spinal cord and nerve root disorders: 2 (1.2%) n (%)
TEAE: HLGT: Urolithiases: 2 (1.2%) n (%)
TEAE: HLGT: Vascular hypertensive disorders: 2 (1.2%) n (%)
TEAE: HLT: Appetite disorders: 1 (0.6%) n (%)
TEAE: HLT: Asthenic conditions: 0 n (%)
TEAE: HLT: Chronic polyneuropathies: 2 (1.2%) n (%)
TEAE: HLT: Coughing and associated symptoms: 0 n (%)
TEAE: HLT: Depressive disorders: 2 (1.2%) n (%)
TEAE: HLT: Digestive enzymes: 2 (1.2%) n (%)
TEAE: HLT: Disturbances in initiating and maintaining sleep: 0 n (%)
TEAE: HLT: Dyspeptic signs and symptoms: 1 (0.6%) n (%)
TEAE: HLT: Elevated triglycerides: 0 n (%)
TEAE: HLT: Flatulence, bloating and distension: 2 (1.2%) n (%)
TEAE: HLT: Gastrointestinal atonic and hypomotility disorders NEC: 1 (0.6%) n (%)
TEAE: HLT: Headaches NEC: 12 (7.4%) n (%)
TEAE: HLT: Influenza viral infections: 6 (3.7%) n (%)
TEAE: HLT: Injection site reactions: 1 (0.6%) n (%)
TEAE: HLT: Inner ear signs and symptoms: 2 (1.2%) n (%)
TEAE: HLT: Intervertebral disc disorders NEC: 2 (1.2%) n (%)
TEAE: HLT: Joint related signs and symptoms: 3 (1.9%) n (%)
TEAE: HLT: Lower respiratory tract and lung infections: 1 (0.6%) n (%)
TEAE: HLT: Lumbar spinal cord and nerve root disorders: 2 (1.2%) n (%)
TEAE: HLT: Musculoskeletal and connective tissue pain and discomfort: 3 (1.9%) n (%)
TEAE: HLT: Nausea and vomiting symptoms: 1 (0.6%) n (%)
TEAE: HLT: Neurological signs and symptoms NEC: 3 (1.9%) n (%)
TEAE: HLT: Oedema NBC: 3 (1.9%) n (%)
TEAE: HLT: Osteoarthropathies: 2 (1.2%) n (%)
TEAE: HLT: Renal lithiasis: 2 (1.2%) n (%)
TEAE: HLT: Skin injuries NEC: 5 (3.1%) n (%)
TEAE: HLT: Supraventricular arrhythmias: 1 (0.6%) n (%)
TEAE: HLT: Vascular hypertensive disorders NEC: 2 (1.2%) n (%)
Treatment emergent SAE: HLGT: Bacterial infectious disorders: 0 n (%)
Treatment emergent SAE: HLGT: Bone and joint injuries: 0 n (%)
Treatment emergent SAE: HLGT: Cardiac and vascular investigations (excl enzyme tests): 1 (0.6%) n (%)
Treatment emergent SAE: HLGT: Cardiac arrhythmias: 1 (0.6%) n (%)
Treatment emergent SAE: HLGT: Coronary artery disorders: 0 n (%)
Treatment emergent SAE: HLGT: Depressed mood disorders and disturbances: 1 (0.6%) n (%)
Treatment emergent SAE: HLGT: Joint disorders: 1 (0.6%) n (%)
Treatment emergent SAE: HLGT: Musculoskeletal and connective tissue deformities (incl intervertebral disc disorders): 0 n (%)
Treatment emergent SAE: HLGT: Musculoskeletal and connective tissue disorders NEC: 0 n (%)
Treatment emergent SAE: HLGT: Neurological disorders NEC: 1 (0.6%) n (%)
Treatment emergent SAE: HLGT: Peripheral neuropathies: 0 n (%)
Treatment emergent SAE: HLGT: Reproductive neoplasms female malignant and unspecified: 0 n (%)
Treatment emergent SAE: HLGT: Spinal cord and nerve root disorders: 0 n (%)
Treatment emergent SAE: HLGT: Urolithiases: 0 n (%)
Treatment emergent SAE: HLT: Bacterial infections NEC: 0 n (%)
Treatment emergent SAE: HLT: Chronic polyneuropathies: 0 n (%)
Treatment emergent SAE: HLT: Depressive disorders: 1 (0.6%) n (%)
Treatment emergent SAE: HLT: ECG investigations: 1 (0.6%) n (%)
Treatment emergent SAE: HLT: Intervertebral disc disorders NEC: 0 n (%)
Treatment emergent SAE: HLT: Ischaemic coronary artery disorders: 0 n (%)
Treatment emergent SAE: HLT: Lumbar spinal cord and nerve root disorders: 0 n (%)
Treatment emergent SAE: HLT: Musculoskeletal and connective tissue pain and discomfort: 0 n (%)
Treatment emergent SAE: HLT: Neurological signs and symptoms NEC: 1 (0.6%) n (%)
Treatment emergent SAE: HLT: Osteoarthropathies: 1 (0.6%) n (%)
Treatment emergent SAE: HLT: Ovarian neoplasms malignant (excl germ cell): 0 n (%)
Treatment emergent SAE: HLT: Rate and rhythm disorders NEC: 0 n (%)
Treatment emergent SAE: HLT: Supraventricular arrhythmias: 1 (0.6%) n (%)
Treatment emergent SAE: HLT: Upper limb fractures and dislocations: 0 n (%)
Treatment emergent SAE: HLT: Urinary tract lithiasis (excl renal): 0 n (%)
Patients with any TEAE leading to permanent treatment discontinuation (listed as insulin glargine): none
Patients with any treatment emergent SAE (listed as insulin glargine): 6 (3.7%) n (%)
